Experimental data published in paper PMC8298488, “Structure of the molecular bushing of the bacterial flagellar motor” (Nature Communications, 2021).

B1: FlgH (natural protein, UniProt P0A1N8 22-232, looked up)
chain: CAWIPAKPLVQGATTAQPIPGPVPVANGSIFQSAQPINYGYQPLFEDRRPRNIGDTLTIVLQENVSASKSSSANASRDGKTSFGFDTVPRYLQGLFGNSRADMEASGGNSFNGKGGANASNTFSGTLTVTVDQVLANGNLHVVGEKQIAINQGTEFIRFSGVVNPRTISGSNSVPSTQVADARIEYVGNGYINEAQNMGWLQRFFLNLSPM
notes: FlgH, the lipoprotein that forms the L ring, Salmonella enterica serovar Typhimurium; made as a precursor with a cleavable N-terminal signal peptide; the atomic model holds the whole 211 residues of FlgH; 26 subunits form the L ring (C26 symmetry); also called L ring protein; H0; source: endogenous, Salmonella HK1002 cells; in the hook-basal body (HBB) purified by sucrose density-gradient …
B2: FlgI (natural protein, UniProt P15930 20-365, looked up)
chain: ERIRDLTSVQGVRENSLIGYGLVVGLDGTGDQTTQTPFTTQTLNNMLSQLGITVPTGTNMQLKNVAAVMVTASYPPFARQGQTIDVVVSSMGNAKSLRGGTLLMTPLKGVDSQVYALAQGNILVGGAGASAGGSSVQVNQLNGGRITNGAIIERELPTQFGAGNTINLQLNDEDFTMAQQITDAINRARGYGSATALDARTVQVRVPSGNSSQVRFLADIQNMEVNVTPQDAKVVINSRTGSVVMNREVTLDSCAVAQGNLSVTVNRQLNVNQPNTPFGGGQTVVTPQTQIDLRQSGGSLQSVRSSANLNSVVRALNALGATPMDLMSILQSMQSAGCLRAKLEII
notes: FlgI, the periplasmic protein that forms the P ring, Salmonella enterica serovar Typhimurium; made as a precursor with a cleavable N-terminal signal peptide; 26 subunits form the P ring (C26 symmetry); Domains: FlgI-OR (1-11 and 160-230), FlgI-IRU (12-159), FlgI-IRL (231-346); also called P ring protein; I0; source: endogenous, Salmonella HK1002 cells; in the hook-basal body (HBB) purified by …

Tests used:
FlgI = target: B2; assay: cryo-EM structure; LP ring part of hook-basal body (HBB) particle images, C26 symmetry applied, 3.5 Å; HBB purified from Salmonella HK1002; final buffer 20 mM Tris-HCl pH 8.0, 150 mM NaCl, 0.05% Triton X-100; conditions: both partners purified
[1] = target: the molecule itself; assay: as above

B1
binding result (FlgI): binds
stoichiometry N [1]: 26

B2
stoichiometry N [1]: 26
